# B1: Mitochondrial import inner membrane translocase subunit TIM23 (Saccharomyces cerevisiae), P32897 (parent)
# chain: MSWLFGDKTPTDDANAAVGGQDTTKPKELSLKQSLGFEPNINNIISGPGGMHVDTARLHPLAGLDKGVEYLDLEEEQLSSLEGSQGLIPSRGWTDDLCYGTGAVYLLGLGIGGFSGMMQGLQNIPPNSPGKLQLNTVLNHITKRGPFLGNNAGILALSYNIINSTIDALRGKHDTAGSIGAGALTGALFKSSKGLKPMGYSSAMVAAACAVWCSVKKRLLEK
# partner: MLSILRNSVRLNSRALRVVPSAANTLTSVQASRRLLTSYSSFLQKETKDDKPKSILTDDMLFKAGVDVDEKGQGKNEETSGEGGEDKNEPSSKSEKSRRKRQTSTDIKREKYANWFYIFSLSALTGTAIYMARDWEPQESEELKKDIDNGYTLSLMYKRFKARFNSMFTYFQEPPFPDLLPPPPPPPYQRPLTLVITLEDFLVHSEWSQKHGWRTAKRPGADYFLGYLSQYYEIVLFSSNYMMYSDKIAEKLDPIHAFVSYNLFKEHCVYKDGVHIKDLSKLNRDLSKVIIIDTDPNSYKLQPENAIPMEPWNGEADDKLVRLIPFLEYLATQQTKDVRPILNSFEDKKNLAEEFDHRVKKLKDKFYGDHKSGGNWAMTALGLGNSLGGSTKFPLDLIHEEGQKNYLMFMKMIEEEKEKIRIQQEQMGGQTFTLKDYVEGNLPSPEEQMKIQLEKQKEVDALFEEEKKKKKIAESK
# Variants of: B1
# Details: with tim50_yeast TIM50, Q02776
row,Variant,effect of a mutation on the interaction
1,MSWLFGDKTPTDDANAAVGGQDTTKPKELSLKQSLGFEPNINNIISGPGGMHVDTARLHPLAGLDKGVEAADLEEEQLSSLEGSQGLIPSRGWTDDLCYGTGAVYLLGLGIGGFSGMMQGLQNIPPNSPGKLQLNTVLNHITKRGPFLGNNAGILALSYNIINSTIDALRGKHDTAGSIGAGALTGALFKSSKGLKPMGYSSAMVAAACAVWCSVKKRLLEK [Y70A;L71A],disrupting interaction

# — IntAct's records for PubMed 23403928
